Measurements taken from the supplement of paper PMC9170038.

Tested on: MS2 coat protein
Test: apparent KD of MS2 coat protein; designed switch direction (-1 OFF switch, 1 ON switch): 1; higher = weaker reporter binding
How it was run: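 Normalised cluster fluorescence was curve-fitted, and each design's median over clusters is its apparent KD. Before this, SNAP-549-labelled MS2 coat protein was titrated from 0.7 or 1.5 nM, doubling to 3 µM, over RNA switches transcribed on Illumina chips by stalled E. coli RNA polymerase. Titrations had no input, 200 uM small-molecule ligand, or an oligonucleotide input, and steps lasted 0.8–1.5 h (lowest) to 10–20 min (highest).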

[1] = Eterna round: R95, input ligand: FMN 200 uM
[2] = Eterna round: R95, input ligand: microRNA oligo, concentration not stated
[3] = Eterna round: R95, input ligand: none
[4] = input ligand: microRNA oligo, concentration not stated

Row | Sequence | apparent KD of MS2 coat protein [1] [nM] | apparent KD of MS2 coat protein [2] [nM] | apparent KD of MS2 coat protein [3] [nM] | apparent KD of MS2 coat protein (input ligand: FMN 200 uM) [nM] | apparent KD of MS2 coat protein [4] [nM] | apparent KD of MS2 coat protein (input ligand: none) [nM]
1 | GCCGCACAUGAGGAUCACCCAUGUAAUUACAUGGGAGGAUAUCAGUGCUCGAAAGAGCACUGAGAAGGCCUGAGGC [SS1 - Omei A v1] (puzzle: Same State 1) | 296 | 32.2 | 28.8 |  |  | 
2 | GCCGCGUUUCGCGCCUACAUGAGGAUCACCCAUGUUUGUAGGCAGGAUAUCGUUUGCUUUGCAAGCGAGAAGGGCUGUUGUGGC [salish99_SSNG3_R04_015] (Eterna round: R96, puzzle: Same State NG 3) |  |  |  | 44.3 | 39.2 | 50.7
3 | GCGAACUGUGUAGGAUAUUGAGCACUUUUGGAGCAAGAAGGACACCAAGUGCUGACUAUACAUGAGGAUCACCCAUGUUCAGCA [Eternabot solution 22] (Eterna round: R96, puzzle: Same State NG 1) |  |  |  |  | 21.4 | 
4 | GCGAAGAGGUAAGGAUAUUCAUGGCGGAGACAUGAGGAUCACCCAUGUAGGAGACGAAAUCAAAGGGAGAAGGUACCAGGACGC [AK SSNG2-V2-15] (Eterna round: R96, puzzle: Same State NG 2) |  |  |  | 82.2 | 159 | 160
5 | GCGAGCGUACUUGCAGACAUGAGGAUCACCCAUGUAACUGGACAGGAUAUGGUACCGUUUCGGUACCAGAAGGGUUCAUAUGUC [JL SSNG3 3.53] (Eterna round: R96, puzzle: Same State NG 3) |  |  |  | 67.6 | 50.8 | 79.4
6 | GCGAGCGUACUUGCAGACAUGAGGAUCACCCAUGUAACUGGACAGGAUAUGGUACCGUUUCGGUACCAGAAGGGUUUACUCAUG [JL SSNG3 3.57] (Eterna round: R96, puzzle: Same State NG 3) |  |  |  | 67.2 | 84 | 69.1
7 | GCGAGCGUACUUGCAGACAUGAGGAUCACCCAUGUAACUGGACAGGAUAUGGUACCGUUUCGGUACCAGAAGGGUUUAUCAUGU [JL SSNG3 3.55] (Eterna round: R96, puzzle: Same State NG 3) |  |  |  | 167 | 140 | 193
8 | GCGAGCGUACUUGCUACAUGAGGAUCACCCAUGUUUGAUGGACAGGAUAUGGUACCGUUUCGGUACCAGAAGGGUUCACAUGUA [JL SSNG3 3.79] (Eterna round: R96, puzzle: Same State NG 3) |  |  |  | 71.4 | 268 | 214
9 | GCGGAACGGUGUGACAUGAGGAUCACCCAUGUAACCUCAUGUAAGGAUAUCGGGAAGAAGAAAACCGAGAAGGUACGGUGACGC [AK SSNG3-V2-29] (Eterna round: R96, puzzle: Same State NG 3) |  |  |  | 399 | 152 | 706
10 | GCGGAAUGGUGUGACAUGAGGAUCACCCAUGUAACCUCAUGUAAGGAUAUCGGGAAGAAGAAAACCGAGAAGGUACGGUGACGC [AK SSNG3-V2-28] (Eterna round: R96, puzzle: Same State NG 3) |  |  |  | 197 | 145 | 165
11 | GCGGAGAGGUAAGGAUAUUCAUGGCAUAGACAUGAGGAUCACCCAUGUAGGAGACGAAUUAGAAGGAAGAAGGUACCGGGACGC [AK SSNG2-V2-18.1] (Eterna round: R96, puzzle: Same State NG 2) |  |  |  | 158 | 113 | 197
12 | GCUACAUCGAGCGAGGAUAUGCGGCGUAUAACAUGAGGAUCACCCAUGUCCUUCGAAUCGAGUACGCAGAAGGCGCUACGGUAGC [Big Heel] (puzzle: Same State 2) | 77.6 | 277 | 551 |  |  | 
13 | GCUACAUGAGGAUCACCCAUGUGUGUGUGGGAGUGAGUGGCUUAGGAUAUCUAUGAUUUUAGUUGAGAGAAGGAGGAUUGCUGU [SS-NG3-LRO09] (Eterna round: R96, puzzle: Same State NG 3) |  |  |  | 471 | 317 | 336
14 | GCUACCAUUGAAGCCAACAUGAGGAUCACCCAUGUAUGUUGGCAGGAUAUCGAUUGCAAAGCGAUCGAGAAGGGCUAAGGUAGC [Mat - Same State NG 3 - JL Mod - D86] (Eterna round: R96, puzzle: Same State NG 3) |  |  |  | 92.2 | 62.8 | 117
